Reference: the RNAGym collection of RNA variant scans (doi:10.7554/elife.80360)

B1: Hairpin Ribozyme (parent)
chain: GUCCUCUUUCACGUGCGCGUGAAAGAGAGAAGUGAACCAGAGAAACACACGUUGUGGUAUAUUACCUGGUA

Variants of: B1
Test: self-cleavage, relative activity (ratio to wild type); higher = more cleavage; co-transcriptional
For C18U A23C, the self-cleavage was 0.898.
C18U A23U gave a self-cleavage of 0.997.
C18U U33G gave a self-cleavage of 0.0901.
Work on C18U U33C yielded a self-cleavage of 0.172.
For G19C G57U, the self-cleavage was 0.275.
In the case of G19C G57C, the self-cleavage is reported as 0.25.
For G19U U58A, the self-cleavage was 0.607.
In the case of C18G A71C, the self-cleavage is reported as 1.35.
Variant U20A A44C has a self-cleavage of 0.202.
Work on C18G G21C yielded a self-cleavage of 0.706.
For C18G G21U, the self-cleavage was 0.651.
In the case of C18G C38U, the self-cleavage is reported as 0.44.
C18U G56A gave a self-cleavage of 0.135.
Variant C18G G25U has a self-cleavage of 0.47.
In the case of C18G G25C, the self-cleavage is reported as 0.454.
In the case of U20A G42A, the self-cleavage is reported as 0.226.
In the case of U20A G42U, the self-cleavage is reported as 0.346.
In the case of C18G U20G, the self-cleavage is reported as 0.724.
With G19U G21C the self-cleavage was 0.692.
With U20A A45U the self-cleavage was 0.172.
In the case of G19U A44G, the self-cleavage is reported as 0.163.
With C18G A49G the self-cleavage was 0.344.
In the case of C18G U62C, the self-cleavage is reported as 0.2.
C18G U62A gave a self-cleavage of 0.2.
In the case of G19C G51C, the self-cleavage is reported as 0.775.
With G19C G51U the self-cleavage was 0.973.
Work on G19C G51A yielded a self-cleavage of 0.903.
U20A gave a self-cleavage of 0.869.
U20C gave a self-cleavage of 0.963.
Work on U20A C38G yielded a self-cleavage of 0.19.
In the case of U20A C38U, the self-cleavage is reported as 0.45.
For G19A G57U, the self-cleavage was 0.289.
For G19C G34U, the self-cleavage was 1.45.
G19C U70G gave a self-cleavage of 0.695.
Variant G19C U70C has a self-cleavage of 0.879.
U20A U58C showed a self-cleavage of 0.847.
With G19U A45U the self-cleavage was 0.145.
Variant G19U A45G has a self-cleavage of 0.228.
G19U A45C showed a self-cleavage of 0.292.
Variant G19A U62A has a self-cleavage of 0.0978.
With G19C G69A the self-cleavage was 0.403.
For G19C G69C, the self-cleavage was 0.369.
In the case of G19C A45U, the self-cleavage is reported as 0.142.
G19C C66A showed a self-cleavage of 0.238.
Variant G19C C66U has a self-cleavage of 0.528.
Variant U20A A26G has a self-cleavage of 0.859.
Variant G19C A47C has a self-cleavage of 0.207.
G19C A47U gave a self-cleavage of 0.152.
In the case of G19A U70A, the self-cleavage is reported as 0.599.
In the case of U20A G68C, the self-cleavage is reported as 0.112.
With C18U U60C the self-cleavage was 1.28.
Variant C18U U60G has a self-cleavage of 0.719.
Work on C18G G40U yielded a self-cleavage of 0.187.
C18G G40C showed a self-cleavage of 0.0865.
G19A A49U gave a self-cleavage of 0.17.
G19A A49C gave a self-cleavage of 0.131.
With U20A C50G the self-cleavage was 0.132.
With G19A G21U the self-cleavage was 0.727.
C18G U33C showed a self-cleavage of 0.164.
Variant C18G U33G has a self-cleavage of 0.123.
G19A A41G gave a self-cleavage of 0.754.
U20A A23C gave a self-cleavage of 0.734.
C18U U52G gave a self-cleavage of 0.859.
With C18U U52C the self-cleavage was 0.928.
With G19U U67G the self-cleavage was 0.272.
For G19U U67A, the self-cleavage was 0.131.
With U20A U60G the self-cleavage was 0.592.
G19U U60C showed a self-cleavage of 1.2.
For C18U A41U, the self-cleavage was 1.21.
For G19A A64G, the self-cleavage was 0.579.
Variant G19U G69C has a self-cleavage of 0.269.
With G19U G69A the self-cleavage was 0.32.
C18U G19U gave a self-cleavage of 1.1.
G19U A28G gave a self-cleavage of 1.
With C18G A44G the self-cleavage was 0.113.
U20A G69A gave a self-cleavage of 0.337.
For G19A C38A, the self-cleavage was 0.153.
In the case of C18U G27A, the self-cleavage is reported as 0.433.
G19A C66U showed a self-cleavage of 0.344.
With G19A C66G the self-cleavage was 0.168.
Work on G19A C66A yielded a self-cleavage of 0.314.
With G19A G27A the self-cleavage was 0.243.
Variant G19A G27C has a self-cleavage of 0.321.
In the case of G19U U55C, the self-cleavage is reported as 0.226.
Work on C18U C66U yielded a self-cleavage of 0.554.
G19C A30C showed a self-cleavage of 0.221.
C18U U70G showed a self-cleavage of 0.973.
For G19U G27U, the self-cleavage was 0.262.
Variant G19U G27C has a self-cleavage of 0.318.
With C18U G57C the self-cleavage was 0.157.
G19A U20G gave a self-cleavage of 0.786.
G19U C66G gave a self-cleavage of 0.22.
Variant C18U G34A has a self-cleavage of 1.3.
In the case of U20A C48U, the self-cleavage is reported as 0.137.
In the case of G19A A59G, the self-cleavage is reported as 0.2.
With G19A A28C the self-cleavage was 0.417.
With C18U C46A the self-cleavage was 0.252.
With C18U C38U the self-cleavage was 0.529.
With U20A A36C the self-cleavage was 0.412.
For G19A A23C, the self-cleavage was 0.763.
With G19A A23U the self-cleavage was 0.711.
Work on U20A C66U yielded a self-cleavage of 0.487.
With U20A C66G the self-cleavage was 0.0899.
G19A G32C showed a self-cleavage of 0.111.
In the case of G19A G56C, the self-cleavage is reported as 0.136.
G19A G56A showed a self-cleavage of 0.124.
In the case of C18U A22U, the self-cleavage is reported as 1.1.
Work on C18U A22C yielded a self-cleavage of 0.949.
For C18U A22G, the self-cleavage was 0.784.
For C18G G29C, the self-cleavage was 0.133.
C18G A45U gave a self-cleavage of 0.228.
In the case of G19U C46U, the self-cleavage is reported as 0.136.
Variant C18G C65A has a self-cleavage of 0.871.
C18G C65U showed a self-cleavage of 0.213.
Variant G19U A64U has a self-cleavage of 0.217.
G19U C50U gave a self-cleavage of 0.33.
G19U A61C gave a self-cleavage of 0.236.
In the case of G19U A61G, the self-cleavage is reported as 0.231.
In the case of C18G A35C, the self-cleavage is reported as 0.797.
Work on G19A C37A yielded a self-cleavage of 0.264.
Variant C18G G27A has a self-cleavage of 0.407.
Variant G19C U33C has a self-cleavage of 0.173.
For G19C U33A, the self-cleavage was 0.125.
G19C A64C gave a self-cleavage of 0.182.
Variant G19C A64U has a self-cleavage of 0.135.
With G19U G56C the self-cleavage was 0.223.
Work on G19U G56A yielded a self-cleavage of 0.16.
In the case of G19C C50G, the self-cleavage is reported as 0.196.
With G19C C50U the self-cleavage was 0.397.
Work on G19A C48U yielded a self-cleavage of 0.179.
With G19A C48G the self-cleavage was 0.153.
G19C C65U gave a self-cleavage of 0.337.
For C18G G56U, the self-cleavage was 0.2.
For U20A A39U, the self-cleavage was 0.296.
For G19C A43G, the self-cleavage was 0.219.
G19A G51A gave a self-cleavage of 1.07.
U20A A64C gave a self-cleavage of 0.163.
Work on U20A U33A yielded a self-cleavage of 0.114.
With U20A U33G the self-cleavage was 0.183.
With C18U A24U the self-cleavage was 0.844.
Work on C18U A24G yielded a self-cleavage of 1.04.
C18G C46U gave a self-cleavage of 0.0966.
U20C A36C gave a self-cleavage of 0.526.
For U20C A36U, the self-cleavage was 0.529.
U20A A43C showed a self-cleavage of 0.0739.
Variant G19U G29C has a self-cleavage of 0.0899.
G19C G68U showed a self-cleavage of 0.213.
Work on G19A A31U yielded a self-cleavage of 0.176.
G19A A31C gave a self-cleavage of 0.136.
G19U A41G gave a self-cleavage of 0.913.
Variant G19U A41C has a self-cleavage of 0.899.
Work on C18U A28U yielded a self-cleavage of 0.606.
C18U A28C showed a self-cleavage of 0.66.
For C18G G19A, the self-cleavage was 0.907.
Variant C18G G19U has a self-cleavage of 0.88.
Variant G19C U53G has a self-cleavage of 0.566.
Work on G19C G54A yielded a self-cleavage of 0.432.
With C18G G51C the self-cleavage was 1.01.
For G19A G42A, the self-cleavage was 0.202.
U20A G40U gave a self-cleavage of 0.153.
For U20A G51A, the self-cleavage was 0.765.
For U20A G51U, the self-cleavage was 0.833.
For C18U A47G, the self-cleavage was 0.15.
For U20C A30G, the self-cleavage was 0.112.
For C18G G69U, the self-cleavage was 0.162.
Work on C18U A43C yielded a self-cleavage of 0.164.
In the case of G19C G40C, the self-cleavage is reported as 0.191.
